Assay results from patent US20240189443A1, “PD-L1 AND TLR7 DOUBLE-TARGETING NANOBODY COUPLING DRUG AND USE THEREOF IN ANTI-TUMOR” (SHANGHAI INSTITUTE OF MATERIA MEDICA, CHINESE ACADEMY OF …, priority 2021, published 2024).
Several values for one entry are separate records, joined by “and”; a condition that tells them apart may be missing. Identical values can stand only once.

Assays:
[1] = tested on: induced CT26; experiment: Induced (high expression) PD-L1 CT26 subcutaneous tumor-bearing model; format: in vivo, BALB/c mouse; conditions: 10 mg/kg intraperitoneal, 4 doses
Source text: (§1) In FIG. 8A, it has been shown that the non-induced CT26 cell surface PD-L1 expression is approximately 17.3%, and the expression level of PD-L1 is increased to 98.1% only after IFN-γ induction. Therefore, we researched and compared the effects of the coupling compound in the non-induced and induced CT26 mouse tumor model, respectively.
(§2) In the two models, CT26 tumor cells were subcutaneously inoculated into female BALB/c mice before and after induction respectively to construct tumor-bearing mouse models, and the inoculation amount was 1×10^6 cells/one; the mice are randomly divided into two groupswith 6 mice of each group, that is, a blank control group mFc (the concentration is 10 mg/kg), and a coupling compound Nb16-SZU-101 group (the concentration was 10 mg/kg); the administration dosage was 200 μl, and the administration modes were both intraperitoneal administration; administration was performed on Day 2, Day 5, Day 8 and Day 11 respectively, and administration was carried out for 4 times; the size of the tumor was measured for 2-3 times every week, and a tumor growth curve was drawn; and anatomical weighing and photographing were performed on the mouse at Day 12.

[2] = biological target: T1, HEK293T/mPD-L1 (Mus musculus, UniProt Q9EP73); experiment: Flow cytometry PD-L1 binding activity assay of the nanobody coupling drug; conditions: 17 concentrations 100-0.0008 μg/mL
T1 construct: expressed in transfected cells; host or cells: HEK293T

[3] = tested on: non-induced CT26; experiment: Uninduced (low expression) PD-L1 CT26 subcutaneous tumor-bearing model; format: in vivo, BALB/c mouse; conditions: 10 mg/kg intraperitoneal, 4 doses
Source text: as §1, §2

[4] = tested on: uninduced CT26 tumor cell; experiment: Early CT26 subcutaneous tumor-bearing model (tumor volume<50 mm^3); format: in vivo, BALB/c mouse
Experimental: (§3) The uninduced CT26 tumor cell subcutaneous was inoculated into a female BALB/C mouse to construct a tumor-bearing mouse model in the two models, and the inoculation amount was 1×10^6 cells/; the mice were divided into two groups, and each group was 8 mice, that is, a blank control group mFc (the concentration was 10 mg/kg), and a coupling compound Nb16-SZU-101 group (the concentration was 10 mg/kg); and the administration dosage was 200 μL, and the administration manner was an abdominal administration. In the early model (the tumor volume was<50 mm^3), the drug was administered in Day 4, Day 7, Day 10, Day 13, Day 16, and the drug was administered for 5 times; in the late model (the tumor volume was greater than 200 mm^3), the drug was administered in Day 9, Day 12, Day 15, Day 17, and the drug was administered for 4 times. The tumor size was measured 2-3 times a week, and a tumor growth curve was drawn.

[5] = tested on: CT26 tumor cells; experiment: Re-tumor model with CT26 cells in mice with regressed tumor; format: in vivo, mouse; conditions: re-tumor 1 week after tumor faded
Source text: Moreover, in the early model, the coupling compound therapy will cause tumor regression of up to 62.5% tumor-bearing mice (FIG. 10B); in the late model, the compound drug will cause 12.5% tumor-bearing mice to have tumor regression (FIG. 10D).

[6] = tested on: IFN-γ-induced high-expression PD-L1 CT26; experiment: IFN-γ-induced high-expression PD-L1 CT26 subcutaneous tumor-bearing model, conjugate vs combined administration; format: in vivo, BALB/c mouse; conditions: Nb16 or Nb16-SZU-101 10 mg/kg, SZU-101 0.5 mg/kg, intraperitoneal
Experimental: In an IFN-γ-induced high-expression PD-L1 CT26 subcutaneous tumor-bearing BALB/c mouse model, mice were randomly divided into four groups, namely an mFc group, an Nb16 group, an Nb16/SZU-101 combined administration group and an NB16-SZU-101 nanobody conjugate drug group, wherein the administration dosage of the mFc or Nb 16 or Nb16-SZU-101 was 10 mg/kg, the administration mode was intraperitoneal administration, the administration dosage of the SZU-101 was 0.5 mg/kg, and the administration mode was intraperitoneal administration; the drug was administered on Day 2, Day 6, Day 10 and Day 13 for a total of 4 times. Tumor sizes were measured 2-3 times per week, and tumor growth curves were drawn; and anatomical weighing and photographing were performed on mice at Day 14.

[7] = tested on: uninduced CT26 tumor cell; experiment: Late CT26 subcutaneous tumor-bearing model (tumor volume>200 mm^3); format: in vivo, BALB/c mouse
Experimental: as §3

[8] = tested on: B16-F10 cells; experiment: Uninduced B16-F10 subcutaneous tumor-bearing model with low expression PD-L1; format: in vivo, C57BL/6 mouse; conditions: 10 mg/kg intraperitoneal
Experimental: The 6 to 8-week-old C57BL 6 mice were randomly divided into two groups, which were respectively as an mFc group and a nanobody-coupled drug NB 16-SZU-101 group. 1×10^6 B16-F10 cells (FIG. 9A) of 1×10^6 non-induced low-expression PD-L1 were planted under the underarm skin of mice (FIG. 9A). Administration was performed by using mFc and nanobody coupled drug Nb16-SZU-101, respectively; the administration dosage of the control drug and Nb16-SZU-101 was 10 mg/kg, and the volume is 200 μL; each group of drug delivery manners was intraperitoneal injection. Each group was administered at 2th, 5th, 8th and 11th days after tumor implantation, respectively, and the drug was administered for […]. On Day 12 mice would be euthanized.

[9] = biological target: T2, PD-1/PD-L1 (HEK293T/mPD-L1) (Mus musculus, UniProt Q9EP73); experiment: Flow cytometry PD-1/PD-L1 blocking activity assay of the nanobody coupling drug; format: binding; conditions: mouse PD-1-biotin 20 μg/mL
T2 construct: expressed in transfected cells; host or cells: HEK293T
T2 sequence (Q9EP73 19-290): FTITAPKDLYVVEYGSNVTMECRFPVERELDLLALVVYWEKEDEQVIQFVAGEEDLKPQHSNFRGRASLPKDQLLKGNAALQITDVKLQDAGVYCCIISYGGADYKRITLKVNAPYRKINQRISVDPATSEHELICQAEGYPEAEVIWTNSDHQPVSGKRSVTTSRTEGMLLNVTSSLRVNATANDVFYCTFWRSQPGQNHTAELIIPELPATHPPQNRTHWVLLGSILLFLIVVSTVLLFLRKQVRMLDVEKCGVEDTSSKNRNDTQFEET

T1 sequence (Q9EP73 19-290): as above

B1: Nb16-SZU-101: PD-L1 and TLR7 dual-targeting nanobody coupling drug, Nb16 coupled with SZU-101-NHS active ester (conjugate)
chain: QVQLQESGGGSVQAGGSLRLSCAASGYTDRNYWMGWFRQAPGKEREGVAALYTRTGSTYYADSVKGRFTISHDNAKNTLYLQMNSLKPEDTAVYYCAADSNAYGLAPLHHYWGQGTQVTVSS
modifications: left off: a dimerising Fc or GST
Tumor growth inhibition rate [1]: 83.6% | PD-L1 binding activity of conjugate compared with Nb16 [2]: does not change the binding activity | Tumor growth inhibition rate [3]: 78.9% | Lifetime (survival) [4]: significantly prolong the lifetime | Tumor growth inhibition rate ([4]; 10 mg/kg abdominal administration, 5 doses): 80.3% | Tumor-bearing mice with tumor regression ([4]; 10 mg/kg, 5 doses): up to 62.5% | Tumor growth after re-tumor of CT26 cells [5]: does not grow the tumor within 40 days | Tumor inhibitory rate ([6]; Day 14, 4 doses): 81% | Anti-tumor effect [6]: significantly improved anti-tumor effect | Endpoint tumor Weight ([6]; individual mice, Day 14, 4 doses): 0.191 g and 0.146 g and 0.155 g and 0.084 g and 0.012 g and 0.087 g | Lifetime (survival) [7]: significantly prolong the lifetime | Tumor growth inhibition rate ([7]; 10 mg/kg abdominal administration, 4 doses): 78.9% | Tumor-bearing mice with tumor regression ([7]; 10 mg/kg, 4 doses): 12.5% | Tumor inhibition rate [8]: about 68.2% | PD-1/PD-L1 blocking activity of conjugate compared with Nb16 [9]: does not change the blocking activity
